Test results as given in patent publication US20180044401A1 (KANEKA, published 2018).

Experiments:
[1] = target: T1, IgG-Fab prepared from anti-EGFR monoclonal antibody (Erbitux); assay: SPR Biacore 3000, Fab immobilized on CM5, peptide at 25, 100, 400 nM, 1:1 model
T1 construct: Chimeric antibody; also called Anti-EGFR antibody - Fab
Protocol: (§1) The affinity of the peptide obtained in the above-described Example 1(2) for the Fc region and Fab region of anti-RSV monoclonal antibody was evaluated using a biosensor Biacore3000 (manufactured by GE Healthcare Bioscience) utilizing surface plasmon resonance. In the present Example, the IgG-Fc or IgG-Fab obtained in the above-described Example 2(1) was immobilized on a sensor tip, and the peptide was flown on the tip to detect the interaction between the two. The IgG-Fab or IgG-Fc was immobilized on a sensor tip CM5 by amine coupling method using N-hydroxysuccinimide (NHS) and N-ethyl-N′-(3-dimethylaminopropyl)carbodiimide hydrochloride (EDC), and ethanolamine was used for blocking. All of the sensor tip and reagents for immobilization was manufactured by GE Healthcare Bioscience. The IgG-Fab solution was diluted to about 10 times using a buffer for immobilization (10 mM AcOH—AcONa, pH 4.5), and the IgG-Fab was immobilized on the sensor tip in accordance with the protocol attached to the Biacore 3000. In addition, a reference cell as negative control was also prepared by activating another flow cell on the tip with EDC/NHS and then immobilizing ethanolamine only. […] Each peptide solution was added to the sensor tip in a flow rate of 40 μL/min for 1 minute. Bonding response curves at the time of addition (association phase, 1 minute) and after the addition (dissociation phase, 1 minute) were sequentially obtained at a measurement temperature of 25° C. After each measurement, about 20 mM NaOH was added for wash.
(§2) Also, the affinity of the peptide according to the present invention (SEQ ID NO: 2) for IgG-Fab prepared from anti-EGFR monoclonal antibody (“Erbitux” sold by Bristol-Myers Squibb) and anti-TNFα monoclonal antibody (“Remicade” sold by Mitsubishi Tanabe Pharma Corporation) was evaluated.

[2] = target: T2, IgG-Fab prepared from anti-TNFα monoclonal antibody (Remicade); assay: as above
T2 construct: Chimeric antibody; also called Anti-TNFα antibody - Fab; IgG-Fab of anti-TNFα monoclonal antibody
Protocol: as §1, §2

[3] = target: T3, IgG-Fc derived from anti-RSV monoclonal antibody (Palivizumab) (human, UniProt P01857-1 108-330 = IgG part, limits assumed); assay: SPR Biacore 3000, Fc immobilized on CM5, peptide flown, 25° C., pH 7.4, 1:1 model
T3 construct: domain: Fc region; Immobilized on a CM5 sensor tip by amine coupling; also called Anti-RSV antibody - Fc; Synagis Fc fragment
Protocol: (§3) The affinity of the peptide obtained in the above-described Example 1(2) for the Fc region and Fab region of anti-RSV monoclonal antibody was evaluated using a biosensor Biacore3000 (manufactured by GE Healthcare Bioscience) utilizing surface plasmon resonance. In the present Example, the IgG-Fc or IgG-Fab obtained in the above-described Example 2(1) was immobilized on a sensor tip, and the peptide was flown on the tip to detect the interaction between the two. The IgG-Fab or IgG-Fc was immobilized on a sensor tip CM5 by amine coupling method using N-hydroxysuccinimide (NHS) and N-ethyl-N′-(3-dimethylaminopropyl)carbodiimide hydrochloride (EDC), and ethanolamine was used for blocking. All of the sensor tip and reagents for immobilization was manufactured by GE Healthcare Bioscience. The IgG-Fab solution was diluted to about 10 times using a buffer for immobilization (10 mM AcOH—AcONa, pH 4.5), and the IgG-Fab was immobilized on the sensor tip in accordance with the protocol attached to the Biacore 3000. In addition, a reference cell as negative control was also prepared by activating another flow cell on the tip with EDC/NHS and then immobilizing ethanolamine only. Peptide solutions having concentrations of 16 nM, 64 nM or 256 nM were prepared using a running buffer (20 mM NaH₂PO₄—Na₂HPO₄, 150 mM NaCl, 0.005% P-20, pH 7.4). Each peptide solution was added to the sensor tip in a flow rate of 40 μL/min for 1 minute. Bonding response curves at the time of addition (association phase, 1 minute) and after the addition (dissociation phase, 1 minute) were sequentially obtained at a measurement temperature of 25° C. After each measurement, about 20 mM NaOH was added for wash.

[4] = target: T4, IgG-Fab derived from anti-RSV monoclonal antibody (Palivizumab); assay: SPR Biacore 3000, Fab immobilized on CM5, peptide flown, 25° C., pH 7.4, 1:1 model
T4 construct: Humanized monoclonal IgG fragmented with papain; Immobilized on a CM5 sensor tip; also called Anti-RSV antibody - Fab; Synagis Fab fragment
Protocol: as §3

B1: immunoglobulin G-binding peptide having the amino acid sequence of SEQ ID NO: 2 (designed binder)
chain: GPLGSTTYKLILNGKTLTGYTTAIAADAATAEIVLKQFANDNGIDGEWTYDDATKTFTVTE
notes: Expressed as a GST fusion in E. coli; GST was cleaved off with PreScission Protease before the assay; also called SpG mutant
In the case of B1, the Ka [1] is reported as 6.5e+07 M⁻¹, the koff [1] is reported as 0.039 s⁻¹ and the kon [1] is reported as 252000 M⁻¹ s⁻¹. For the same binder, the Ka [2] was 4e+07 M⁻¹, the koff [2] was 0.01 s⁻¹ and the kon [2] was 413000 M⁻¹ s⁻¹. It also gave a Ka [3] of 3.5e+06 M⁻¹, a koff [3] of 0.028 s⁻¹ and a kon [3] of 97000 M⁻¹ s⁻¹. For the same binder, the Ka [4] was 2e+07 M⁻¹, the koff [4] was 0.003 s⁻¹ and the kon [4] was 66000 M⁻¹ s⁻¹.
